From article doi:10.1101/2025.03.28.645925 (bioRxiv, 2025)
Several values for one entry are separate records, joined by “and”; a condition that tells them apart may be missing. Equal values may be shown once. Read-outs that look alike come from different tables or passages of the source.

What was measured:
[1] = molecular target: NrdR2^PAO (GSGSGS-NrdR2, P. aeruginosa NrdR after TEV digestion) (P. aeruginosa PAO1); experiment: SEC-MALS
[2] = molecular target: NrdR2^PAO (GSGSGS-NrdR2, P. aeruginosa NrdR after TEV digestion) (P. aeruginosa PAO1); experiment: SEC-MALS; remark: listed apart in the source
[3] = molecular target: NrdR2^PAO (GSGSGS-NrdR2, P. aeruginosa NrdR after TEV digestion) (P. aeruginosa PAO1); experiment: SEC-MALS; remark: listed apart in the source
[4] = molecular target: NrdR1^PAO (P. aeruginosa NrdR with a two amino acid linker after SUMO protease digestion) (P. aeruginosa PAO1); experiment: SEC
[5] = molecular target: NrdR1^PAO (P. aeruginosa NrdR with a two amino acid linker after SUMO protease digestion) (P. aeruginosa PAO1); experiment: SEC; remark: listed apart in the source
[6] = molecular target: the molecule itself; experiment: SEC-MALS
[7] = molecular target: P0A8D0; experiment: SEC-MALS
[8] = molecular target: P0A8D0; experiment: SEC-MALS; remark: listed apart in the source
[9] = molecular target: the molecule itself; experiment: SEC-MALS; remark: listed apart in the source
[10] = molecular target: the molecule itself; experiment: SEC-MALS; remark: listed apart in the source
[11] = molecular target: the molecule itself; experiment: SEC-MALS; remark: listed apart in the source
[12] = molecular target: the molecule itself; experiment: SEC-MALS; remark: listed apart in the source
[13] = molecular target: the molecule itself; experiment: SEC-MALS; remark: listed apart in the source
[14] = molecular target: the molecule itself; experiment: SEC

## NrdR2^PAO (GSGSGS-NrdR2, P. aeruginosa NrdR after TEV digestion) (natural protein)
[1]
  stoichiometry N: 2
[2]
  stoichiometry N: > 2
[3]
  stoichiometry N: > 2

## NrdR1^PAO (P. aeruginosa NrdR with a two amino acid linker after SUMO protease digestion) (natural protein)
[4]
  stoichiometry N: 2 and 3
[5]
  stoichiometry N: 6 and 2

B1: SUMO-NrdR2^ECO E42A (natural protein, E. coli K-12 MG1655)
chain: ENLYPQGSGSGSMHCPFCFAVDTKVIDSRLVGEGSSVRRRRQCLVCNERFTTFAVAELVMPRVVKSNDVREPFNEEKLRSGMLRALEKRPVSSDDVEMAINHIKSQLRATGEREVPSKMIGNLVMEQLKKLDKVAYIRFASVYRSFEDIKEFGEEIARLED
[6]
  stoichiometry N: 2
[7]
  percent of the protein mass in the monomer peak: 83% in a peak with average Mw 36.88 kDa
[8]
  percent of the protein mass in the monomer peak: 63% in a peak with average Mw 33.21 kDa

B2: SUMO-NrdR2^ECO Y131A (natural protein, E. coli K-12 MG1655)
chain: ENLYPQGSGSGSMHCPFCFAVDTKVIDSRLVGEGSSVRRRRQCLVCNERFTTFEVAELVMPRVVKSNDVREPFNEEKLRSGMLRALEKRPVSSDDVEMAINHIKSQLRATGEREVPSKMIGNLVMEQLKKLDKVAYIRFASVARSFEDIKEFGEEIARLED
[6]
  stoichiometry N: 2
[9]
  stoichiometry N: 4 and 8 and 3

B3: SUMO-NrdR2^ECO (undigested 6His-SUMO-TEVcs-(SGSGS)-NrdR, E. coli), wild type (natural protein, E. coli K-12 MG1655)
chain: ENLYPQGSGSGSMHCPFCFAVDTKVIDSRLVGEGSSVRRRRQCLVCNERFTTFEVAELVMPRVVKSNDVREPFNEEKLRSGMLRALEKRPVSSDDVEMAINHIKSQLRATGEREVPSKMIGNLVMEQLKKLDKVAYIRFASVYRSFEDIKEFGEEIARLED
[6]
  stoichiometry N: 2 and ≥ 4
[10]
  stoichiometry N: 4 and 8
[9]
  stoichiometry N: 12

B4: SUMO-NrdR2^ECO E36A (natural protein, E. coli K-12 MG1655)
chain: ENLYPQGSGSGSMHCPFCFAVDTKVIDSRLVGEGSSVRRRRQCLVCNARFTTFEVAELVMPRVVKSNDVREPFNEEKLRSGMLRALEKRPVSSDDVEMAINHIKSQLRATGEREVPSKMIGNLVMEQLKKLDKVAYIRFASVYRSFEDIKEFGEEIARLED
[6]
  stoichiometry N: 2 and ≥ 4
[10]
  stoichiometry N: 3

B5: SUMO-NrdR2^ECO Δ(132-149) (domain or fragment, E. coli K-12 MG1655)
chain: ENLYPQGSGSGSMHCPFCFAVDTKVIDSRLVGEGSSVRRRRQCLVCNERFTTFEVAELVMPRVVKSNDVREPFNEEKLRSGMLRALEKRPVSSDDVEMAINHIKSQLRATGEREVPSKMIGNLVMEQLKKLDKVAYIRFASVY
[6]
  stoichiometry N: 2

B6: NrdR2^ECO (GSGSGS-NrdR2, E. coli NrdR after TEV digestion) (natural protein, E. coli K-12 MG1655)
chain: GSGSGSMHCPFCFAVDTKVIDSRLVGEGSSVRRRRQCLVCNERFTTFEVAELVMPRVVKSNDVREPFNEEKLRSGMLRALEKRPVSSDDVEMAINHIKSQLRATGEREVPSKMIGNLVMEQLKKLDKVAYIRFASVYRSFEDIKEFGEEIARLED
[11]
  stoichiometry N: 3
[6]
  stoichiometry N: 2
[12]
  stoichiometry N: 4 to 10 (2×) and 8
[13]
  stoichiometry N: 6
[9]
  stoichiometry N: 15 to 16

B7: NrdR^PAO-H6 (P. aeruginosa NrdR with a C-terminal 6His-tag) (natural protein, P. aeruginosa PAO1, UniProt Q9HWX1 1-154, looked up)
chain: MHCPFCGAHDTKVIDSRLVAEGDQVRRRRECLACGERFTTFETAELVMPRLIKQDGSRQPFDEDKLRAGMQRALEKRPVSVERLEAAIGHIKHQLRATGEREIKSRVLGELVMAELQKLDEVAYIRFASVYRRFQDLNEFREEIERLAREPAKE
[14]
  binding result: binds
